The results in this text go back to publication PMC5298718.

The target of the experiment is NRP1-PerCP-Cy5.5 (carrier free recombinant neuropilin-1 coupled to PerCP-Cy5.5) (UniProt O14786). The experiment can be described thus: FRET or BRET; Scheme 3: VEGF (22.4 nM or 11.2 nM, diluted in PBS) incubated simultaneously in solution with the donor (RLuc8-Ra02 or RLuc8-4xGly-Ra02, cleared HEK293 lysate) and the acceptor NRP1-PerCP-Cy5.5, both in excess; n-CLZ in BRET assay buffer; BRET ratio magenta filter/blue filter, against a no-VEGF control.
Sequence of UniProt O14786 (O14786 22-856): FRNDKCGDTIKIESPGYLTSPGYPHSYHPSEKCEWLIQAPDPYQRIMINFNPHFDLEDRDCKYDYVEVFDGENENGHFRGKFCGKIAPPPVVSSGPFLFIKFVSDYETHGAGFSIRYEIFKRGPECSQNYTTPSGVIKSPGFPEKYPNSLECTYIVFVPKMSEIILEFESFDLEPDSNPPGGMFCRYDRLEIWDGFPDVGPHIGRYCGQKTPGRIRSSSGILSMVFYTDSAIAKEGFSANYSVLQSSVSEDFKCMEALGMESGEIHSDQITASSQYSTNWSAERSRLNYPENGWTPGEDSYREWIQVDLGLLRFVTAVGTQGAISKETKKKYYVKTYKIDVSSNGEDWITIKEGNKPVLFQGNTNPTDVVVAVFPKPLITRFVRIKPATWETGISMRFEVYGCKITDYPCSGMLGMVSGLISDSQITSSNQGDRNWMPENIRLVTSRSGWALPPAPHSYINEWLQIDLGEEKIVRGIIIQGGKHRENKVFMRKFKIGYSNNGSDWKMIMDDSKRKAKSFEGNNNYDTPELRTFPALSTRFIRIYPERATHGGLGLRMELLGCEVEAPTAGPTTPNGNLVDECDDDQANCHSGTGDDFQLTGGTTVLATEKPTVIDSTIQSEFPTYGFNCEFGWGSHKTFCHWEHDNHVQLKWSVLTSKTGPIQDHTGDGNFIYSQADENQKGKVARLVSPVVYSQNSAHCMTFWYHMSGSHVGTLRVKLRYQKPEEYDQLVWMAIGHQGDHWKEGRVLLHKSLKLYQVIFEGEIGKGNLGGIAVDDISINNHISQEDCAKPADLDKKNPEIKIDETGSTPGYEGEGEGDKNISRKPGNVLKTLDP

Regarding “vascular endothelial growth factor (rhVEGF165) (ligand)”, the BRET ratio (donor RLuc8-4xGly-Ra02, 11.2 nM VEGF) came out at 114 mBU; the BRET ratio (donor RLuc8-4xGly-Ra02, 22.4 nM VEGF) came out at 119 mBU; the BRET ratio (donor RLuc8-Ra02, 11.2 nM VEGF) was determined as 110 mBU; the BRET ratio (donor RLuc8-Ra02, 22.4 nM VEGF) is 115 mBU.
